Experimental findings from paper PMC9297724, “SARS-CoV-2 Epitopes following Infection and Vaccination Overlap Known Neutralizing Antibody Sites” (Research, 2022) are described below.

This assay addresses T1, ACE2-Fc (human, UniProt Q9BYF1).
T1 construct: also called recombinant human ACE2; angiotensin converting enzyme-2; source: bought: GenScript
As to the kind of experiment: ELISA; ACE2-Fc (4 ug/mL) captured on goat anti-human IgG Fc coated plates; biotin-labeled S481 peptide in two-fold dilutions 2000-3.90 ng/mL in 1% BSA/0.05% PBST, 1 hour at room temperature; detected with HRP-streptavidin and TMB, absorbance at 450 nm. The following applies: both partners purified.

Where no end group is shown, it is not given here.

T1 sequence (Q9BYF1 18-740): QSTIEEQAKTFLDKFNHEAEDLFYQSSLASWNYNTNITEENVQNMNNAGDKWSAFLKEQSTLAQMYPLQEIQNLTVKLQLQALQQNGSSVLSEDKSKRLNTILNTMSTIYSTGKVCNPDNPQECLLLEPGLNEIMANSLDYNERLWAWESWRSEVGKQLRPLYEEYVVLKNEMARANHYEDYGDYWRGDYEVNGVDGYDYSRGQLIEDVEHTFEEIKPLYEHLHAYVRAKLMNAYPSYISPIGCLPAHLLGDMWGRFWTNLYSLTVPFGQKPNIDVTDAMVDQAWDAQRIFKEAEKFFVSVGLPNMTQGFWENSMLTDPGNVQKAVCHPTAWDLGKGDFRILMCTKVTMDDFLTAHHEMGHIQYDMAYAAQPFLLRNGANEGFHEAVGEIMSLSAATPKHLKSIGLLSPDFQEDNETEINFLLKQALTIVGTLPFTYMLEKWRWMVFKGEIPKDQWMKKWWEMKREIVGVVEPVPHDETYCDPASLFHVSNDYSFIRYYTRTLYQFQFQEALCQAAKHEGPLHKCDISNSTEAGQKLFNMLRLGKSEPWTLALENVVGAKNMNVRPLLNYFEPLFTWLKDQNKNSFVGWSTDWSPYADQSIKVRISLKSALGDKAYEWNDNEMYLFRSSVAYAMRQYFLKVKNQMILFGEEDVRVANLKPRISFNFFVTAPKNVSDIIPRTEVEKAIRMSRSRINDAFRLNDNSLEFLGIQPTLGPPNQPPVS

Take NGVEGFNCYFPLQSY (also: biotin label, position not given here, also called S481 peptide) [S481-495 peptide]: the binding result is reported as “binds”.
